This is an account of results in patent US8865222B2, “Beta-casein assemblies for enrichment of food and beverages and methods of preparation thereof” (Technion Research and Development Foundation Ltd., priority 2008, dated 2014).

What all share (type): physicochemical
A short description of data set [1]: Analytical ultracentrifugation, sedimentation equilibrium. The protocol: • Cryo-TEM: Specimens were prepared in the controlled environment vitrification system (CEVS) (Bellare et al. Electron Microsc. Technique, 1988, 10; 87-111) at 24° C. and 100% relative humidity to avoid loss of volatiles. First, the solutions were incubated in the CEVS at the desired temperature for 1 h. Then, a 7 μL drop of each solution was placed on a TEM copper grid covered with a perforated carbon film (Pelco International) and blotted with filter paper to form a thin liquid film of the sample (100-200 nm thick). The thinned sample was plunged into liquid ethane at its freezing temperature (−183° C.) to form a vitrified specimen and then transferred to liquid nitrogen ([…]) for storage. The vitrified specimens were examined in a Philips CM120 transmission electron microscope operating at an accelerating voltage of 120 kV. We used an Oxford CT3500 (Oxford Instruments) cryoholder that maintained the specimens below −175° C. during sample transfer and observation. Images were recorded digitally on a cooled Gatan MultiScan 791 CCD camera using DigitalMicrograph 3.1 software (Gatan) in the low-dose imaging mode to minimize beam exposure and electron-beam radiation damage. • ITC: ITC measurements were performed with a VP-ITC calorimeter (MicroCal) at a temperature of 24° C. […] The micellar solution was injected into the reaction cell in 28 steps of 10 μL aliquots each, and the heat flow was measured. […] The average apparent molecular weight of the micelles at the various protein concentrations was calculated following methods well known in the art (The partial specific volume vj of the solute was taken to be 0.742 cm3/g3, and a solution density F of 1.0044 g/cm3 was measured). At beta-casein concentrations of 2 mg/mL and above under low pH conditions, the plot of the natural logarithm of the measured absorbance versus the square of the radius from the axis of rotation was not linear. […] The molecular weight calculated using this slope was divided by the monomer molecular weight calculated from the beta-casein amino acid sequence (24000). […]

A short description of data set [2]: Storage stability of beta-casein assembly solutions. The protocol: Preparation of beta-casein assemblies: weighted amounts of lyophilized bovine beta-casein are dissolved in low-pH solution (e.g. ˜6% by weight of lactic acid solution or hydrochloride acid solution, ˜pH 2.1), typically at concentrations ranging from 0.1 mg/mL up to at least 50 mg/ml, to the desired pH (2.5-2.8), below the pI. The pH can be adjusted to the desired values using appropriate buffers. Mixing is done at room temperature, and the solution is equilibrated at 4° C. for ˜36 hr, allowing complete solubilization and formation of the protein assemblies. Thereafter, the solutions can be held at any temperature between 1 and 60° C. Similarly, to prepare beta-casein micelles at neutral pH, weighted amounts of lyophilized protein are added to a buffer at neutral pH (e.g., HEPES buffer, or PBS), at concentration ranging from 0.1 mg/ml to ˜40 mg/ml. Complete solubilization of the protein is achieved within ˜36 hr, at 4° C. A transparent solution is obtained, containing unique nano-sized beta-casein assemblies. The protein solutions are filtered through a porous membrane of 0.45 micron pore size. The beta-casein concentration was determined by measuring the absorbance at 280 nm by an Ultrospec 2000 UV/Visible spectrophotometer (Pharmacia Biotech, England), using an extinction coefficient of 4.6(1%) mM^−1cm^−1. […]

The nature of data set [3]: Turbidity (solution absorbance at 600 nm). Conditions: pH 2.6, empty assemblies, up to at least 2 wt %.

“Also recorded” adds a separate entry of the source.

B1: beta-casein: lyophilized bovine beta-casein (~24 kDa milk protein) self-assembled into nano-sized micelles at low or neutral pH (protein, UniProt P02666 16-224, looked up)
Beta-casein: RELEELNVPGEIVESLSSSEESITRINKKIEKFQSEEQQQTEDELQDKIHPFAQTQSLVYPFPGPIPNSLPQNIPPLTQTPVVVPPFLQPEVMGVSKVKEAMAPKHKEMPFPKYPVEPFTESQSLTLTDVENLHLPLPLLQSWMHQPHQPLPPTVMFPPQSVLSLSQSKVLPVPQKAVPYPQRDMPIQAFLLYQEPVLGPVRGPFPIIV
As for B1, in data set [1] (pH 2.6, around the CMC), the aggregation number was found to be 3. Also, the aggregation state entry in data set [1] (pH 2.6, concentrations lower than the CMC) is listed as “monomeric”. In data set [1] (pH 7.0 and ionic strength 0.1), this molecule showed a Nagg of 20. In addition, the “colloidal / storage stability of sterile solution” value in data set [2] (sterile) is “at least several months; also recorded: colloidally stable for months”. Besides, the “storage stability of the solution” value in data set [2] (stored at 4 °C) is recorded as “several weeks”. Moreover, in data set [3], the turbidity entry is recorded as “does not vary significantly”.
